Laboratory results reported in the nanobody polyreactivity screen of Harvey et al. (2022).

Test: yeast display, Sf9 membrane polyspecificity reagent, FACS + sequencing; frameworks hold sequencing errors
Summary of the method: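 In a synthetic yeast display library (Saccharomyces cerevisiae BJ5465), nanobody expression was induced with galactose for 36–48 hours. FACS gates were set low and high (top ~1%) using anti-HA fluorescence for expression and streptavidin fluorescence for binding of the Sf9 membrane reagent. Each polyreactivity label is drawn from the gate of origin.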

Sequence | polyreactivity (PSR sort gate)
QVQLVESGGGLVQAGGSLRLSCAASGSILSQYAMGWYRQAPGKERELVAAITYSGGSTHYADSVKGRFTISRDNAKNTVYLEMNSLKPEDTAVYYCAAKGPRRWGSGLDYWGQGTHVTVSS | low polyreactivity
QVQLVESGGGLVQAGGSLRLSCAASGLIFYRYTMGWYRQAPGKEREFVAAITAGGSTYYADSVKGRFTISRDNAKNTVYVQMNSLKPEDTAVYYCATLVRLLQYTYIKYDYWGQGTQVTVSS | high polyreactivity
QVQLVESGGGLVQAGGSLRLSCAASGRILYYYVMGWYRQAPGKERELVAAITRGGSTDYADSVKGRFTISLDNAKNTVYLQMNSLKPEDTAVYYCAAVVYLHYSVDYWGQGSQVTVSS | low polyreactivity
QVQLVESGVGLVQAGGSLRLSCAASGSIFFPNAMGWYRQAPGKQRELVAAITSTSTNYAESVKGRCTISRDNAKNTVYLQMNSLKPEDTAVYYCAADGEFRRAWYEGDYWGQGTQVTVSS | low polyreactivity
QVQLVESGGGLVQAGGSLRLSCAASGFTFPGNAMGWYRQAPGKEREFVAAITRSSGSTSYADSVKGRFTISRDNAKNTVYLQMNSLKPEDTAVYRDYWGQGTQVTVSS | low polyreactivity
QVQLVESGGGLDQAGGCLRLSCAASGSIFRTYAMGWYRQAPGKERELVADITRRGGSTYYADSVKGRFTISRDNAKYTVNLQLNSLKPEETAVYYCAAYGYTSAGDSARLDYWGQGSQVTVSS | high polyreactivity
QVQLVESGGGLVQAGGSLRLSCAASGSTFWDYAMGWYRQAPGKERELVASISSGGRTYYADSVKGRFTISRDNAKNTVYLQMNSLKPEDTAVYYCARRSWWDYYSWGQGTQVTVSS | high polyreactivity
QVQLVESGGGLVQAGGSLRLSCAASGRIFVGYAMGWYRQAPGKERELVAAINRSGSSTYYADSVKGRFTISRDNAKNTVYLQMNSLKPEDSAVYYCNARAPSYYRYRASSAYDYWGQGTQVTVSS | high polyreactivity
QVQLVESGGGLVQAGGSLRLSCAASGIIFKVNVMGWYRQAPGKERELVAAISWSGGSTYYADSVKGRFTISRDNAKNTFYLQMNILKPEDTAVYYCAAYSYVYGERYYFWGQGTQLTVSS | high polyreactivity
QVQLVESGGGLVQAGGSLRLSCAASGFTFLVYAMGWYRQAPGKERELVAAITWSGDSTYYADSVKGRFTISRDNAKNTVYLQMNSLKPEDTAVYYCAAAYRYGTLYYYWGQGTQVTVSS | low polyreactivity
QVQLQESGGGLVQAGGSPRLSCAASDNIFPDSLMCWYRQAPGKERELVATIGFGATTNYEDSVKGRFTISRDNAKNTVYLQMNSLNPEDTALYYCAAVPLNYEYFCYWGQGTQVTVSS | low polyreactivity
QVQLVESGGGLDQAGGSLRLTCAASGRIFGAYAMGWYRQAPGKEMELVAVISLSTGSTYYADSVKVRFTISRDNAKNTVYLQMKSLKPDDTAVYYCAVDTRFKWGWDYYYWGLGTQVTVSS | high polyreactivity
QVQLVESGGGLVQAGGSLRLSCAASGSILSWYAMGWYRQAPGKERELVAAITSGASTYYADSVKGRFTISRDNAKNTVYLQMNSLKPEDTAVYYCAAYPPSQRAEYDYWGQGTQVTVSS | low polyreactivity
QVQLVESGGGLVQAGGSLRLSCAASGFTFSYNTMGWYRQAPGKERELVAAISGSGARTYYADSVKGRFTISRDNAKNSVYLQMNSLKPEDTAVYYCNAKYGYDSEARIVKPVRYDYWGQGTQVTVSS | high polyreactivity
QVQLVESGGGLVQAGGSLRLSCAASGRIFGFNTMGWYRQAPGKERELVAAISRNGGSTYYADSVKGRFTISRDNAKNTVYLEMNSLKPEDTAVYYCAKRWYPYSYDYWGQGTQVTVSS | high polyreactivity
QVQLVESGGGLVQAGGSLRLSCAATGFTFIHYGMGWYRQAPGKERELVAAITWRGDRTYADSVKGRFTISRDNANNTVYLQMNSLKPEDTAVYYCAAVSANQDFDYWGQGTQVTVSS | high polyreactivity

Sequence | polyreactivity (PSR sort gate)
QVQLVESGGGLVQAGGSLRLSCAASGFTFDFYAMGWYRPAPGKERELVAAISRSGGRTYYADSVKGRFTISRDNAKNTVYLQMNSLKPEDTAVYYCNTGFFYYNFRYYYWGQGTQVTVSS | low polyreactivity
QVQLVESGGGLVQAGGSLRLSCAASGNIFKWYAMGWYRQAPGKERELVAAISKSGGSTYYADSVKGRFTISRDNAKNTVYLQMNSLKPEDTAVYYCAAGWKHGTYRYTVESNFDYWGQGTQVTVSS | high polyreactivity
QVQLVESGRGLFQAGGSLRLSCAASGIIFKSYAMGWYRQAPGKEREFVAAISWSGGRTTYADSLKGRFTISRDNAKNTVYLPMNSLKPEDTAVYYCAAAARGKFYYWGQGTQVTVSS | high polyreactivity
QVQLVESGGGLVQAGGSLRLSCAASGLIFNTYAMGWYRQAPGKDRELVAAITDGGGTNYADSVKGRFTISRDNAKNTVYLQMNSLKPEDTAVYYCAARLASWPLTYDFQWYEYWGQGTQVTVSS | low polyreactivity
QVQLVESGGGLVQAGGSLRISCAASGFIFNIYAMGWYRQAPGKERELVASITSGGNTNYADSVKGRFTISRDNAKNTVYLQMNSLKPEDTAVYYCAAETSSSRGYDYWGQGTQVTVSS | low polyreactivity
QVQLVESGGGLVQAGGSLRLSCAASGSIFLYNAMGWYRQAPGKERELVAAISASGGSTYYADSVKGRFTISRDNAKNTVYLQMNSLKPEDTAVYYWAAQYSDYDGFTWPLPPRYDYWGQGTQVTVSS | high polyreactivity
QVQLVESVGVLVQAGARLRLSCAASGSIFRTNTMGSYRQAPVKERELVAAITAIGDSTYYGDSVKGRFTISRDNAKNTVYLQMNSLKPEDTAVYYCAAEKVSWGYHFYSSSDYWGQATQVTVSS | low polyreactivity
QVQLVESGGGLVQAGGSLRLSCAASGLTSLGNAMGWYRQAPGKERELVAAITRTGTSTYYADSVKGRFTISRDNAKNTVYLQMNSLKPEDTAVYYCAALDRYSTEYKYQLYKQEYDYWVQGTQVTVSS | low polyreactivity
QVQLVESGGGLVQAGGSLRLSCAASGGTIRYYAMGWYSQAPWKERELVAAISVGGGRTYYADSVKGRFTISRDNAKNTVYLQMNSLKPEDTAVYYCAADYASWSNWGYEYWGQGTQVTVSS | high polyreactivity
QVQLVESGGGLVQAGGSLRLSCAASGSTFFHYVMGWYRQAPWKERELVAAIRWSGGRTRYADSVKGRFTISRDNAKNTVYLQMNSLKPEDTAVYYCAAYRLSKPFYKYDYWGQGTQVTVSS | high polyreactivity
QVQLVESGGGLVQAGGSLRLSCAASGRIFTDNAMGWYRQAPGKERELVAAISWDGSSTSYADSVKGRFTISRDNAKNTVYLQMNSLKPEDTAVYDCAAVLYSGLYWYRLDYWGQGTRVTVSS | low polyreactivity
QVQLVESGGGLVQAGGSLRLSCAASGGTFLAYAMGWYRQAPGKERELLATITSGGSTNYADSVKGRFTISRDNAKNTVYVQMNSLKPEDTAVYYCAASGRDFIAESPYDYWGQGTQVTVSS | low polyreactivity
QVQLVESGAGLVQAGGSLRLSCAASGRTFFRYVMGWYRQAPGKERELVAAIRSGGSTNYADSVKGRFTISLDNAKNTVYLQMNSLKPEDTAVYYCAARKWHSAYDYWVQGTQVTVSS | high polyreactivity
QVQLVDSGGGLVQAGASLRLSCAASGRTFYPYAMGWYRQAPAKERELDAAISSKGGITYYADSVKGRFTISRDNAKNTVYLQMNSLNPEDTAVYYCAALYTGESGYWGQGTQVSVSS | high polyreactivity
QVQNVESGGGLVQARGSLRLSCAASGRTFTESDMGRYRQAPGKERELVAAITSVGSTYYADSVKGRFTISRYNAKNTVYLQMNSLKPEDTAVYYCAAEWQNTNMDYWGQGTQVTVSS | low polyreactivity
QVQHVESGGGLVQAGGSLRLSCASSGSTFWFYAMGWYRQAPGKERELVATINWYGGTTNYADSVKGRFTISRDNAKNSVYLQMYSLKPEDTADYYGAGYQALTYGSYEYWGQGSQVTVSS | low polyreactivity
